In patent publication US20250145711A1 (Janssen / Centocor, published 2025):

Experiments:
[1] = biological target: T1, human PSMA on prostate cancer cell lines (22RV1, C4-2B) (human, UniProt Q04609 1-750); assay: flow cytometry on 22RV1 cells
T1 construct: also called PSMA-expressing cell lines
Description: (§1) 22RV1 and C4-2B cells were plated at 50,000 cells per well in 50 μl of assay medium (RPMI, 10% HI FBS) in V bottom plates. Serial dilutions of antibodies were prepared in assay medium with 50 μl of antibody dilutions added to the plates containing cells. The plates were incubated for 60 min at 37° C. at which time 100 μl of staining buffer (Becton Dickinson Cat #554657) was added to all wells of each plate. The plates were centrifuged at 300×G for 5 minutes and the medium was removed from the wells. 200 μl of staining buffer was added to all wells of each plate. The plates were centrifuged at 300× G for 5 minutes and the medium was removed from the wells. 50 μl of 2 μg/ml AlexaFluor647-labeled goat anti-human Fc was added to all wells of the plates and the plates were incubated for 30 minutes at 4° C. 150 μl of staining buffer was added to all wells of each plate. The plates were centrifuged at 300× G for 5 minutes and the medium was removed from the wells.

[2] = biological target: T1, human PSMA on prostate cancer cell …; assay: flow cytometry on C4-2B cells
Description: as §1

recombinant human PSMA = biological target: T2, recombinant human PSMA (human, UniProt Q04609 44-750); assay: SPR (Biacore 8K), antibody captured on anti-Fc, PSMA in solution
T2 construct: also called hu PSMA; prostate-specific membrane antigen
Description: The binding affinity of anti-PSMA to the recombinant human, cynomolgus or mouse PSMA was determined by surface plasmon resonance (SPR) using a Biacore 8K instrument\. […] The association and dissociation were monitored for 3 and 15 minutes, respectively, using a flow rate of 50 μL/min. Raw binding data was referenced by subtracting the analyte binding signals from blanks and analyzed using a 1:1 Langmuir binding model using the Biacore Insight evaluation software to obtain the kinetics which were used to calculate the binding affinity. The anti-PSMA were captured using an anti-human Fc antibody and the antigens were injected in solution.

[3] = biological target: T3, TRCW5 antigen (CD3δε-Fc-Avi) (biotinylated (site not stated)); assay: ELISA, E. coli scFv on biotinylated TRCW5
T3 construct: also called recombinant CD3
Description: Briefly, DNA was transformed into an E. coli expression vector to generate scFv molecules having a C-terminal HA-tag, and cells were plated on 2×YT/Carb/2% Glucose grown overnight at 37 C. Colonies were picked and transferred 50 ul of overnight growth cultures to new plates containing 500 ul of 2×YT/Carb/0.1% Glucose, grown for 6-7 hr, and combined with 50 ul 2×YT medium containing 1×carbenicillin & 12×IPTG. Cultures were incubated with shaking ˜600 RPM 30° C. overnight. Streptavidin coated plates were bound with 50 μL of biotinylated TRCW5 antigen (CD3δε-Fc-Avi, SEQ ID NO: 39) at the concentrations indicated in the ELISA graph for 45 min at room temperature with shaking (FIG. 1, FIG. 3, FIG. 4) followed by washing 3× with 1×TBST. Plates were blocked with 200 ul 3% Milk in 1×TBST for ˜45 mins at room temperature followed by washing 3× with 1×TBST. E. coli cultures were harvested by centrifugation at […] for 10 mins 4° C. and 50 μL of supernatant was transferred into CD3-coated plates followed by incubation at 4 C for 45 min. Plates were washed 3× with 1×TBST. Bound scFv was detected with Chicken Polyclonal Anti-HA-HRP (ab1190) [1:1000] for ˜45 mins RT and luminescence detected with chemi-luminescent substrate.

[4] = biological target: T3, TRCW5 antigen (CD3δε-Fc-Avi); assay: ELISA after heat

T1 sequence (Q04609 whole entry): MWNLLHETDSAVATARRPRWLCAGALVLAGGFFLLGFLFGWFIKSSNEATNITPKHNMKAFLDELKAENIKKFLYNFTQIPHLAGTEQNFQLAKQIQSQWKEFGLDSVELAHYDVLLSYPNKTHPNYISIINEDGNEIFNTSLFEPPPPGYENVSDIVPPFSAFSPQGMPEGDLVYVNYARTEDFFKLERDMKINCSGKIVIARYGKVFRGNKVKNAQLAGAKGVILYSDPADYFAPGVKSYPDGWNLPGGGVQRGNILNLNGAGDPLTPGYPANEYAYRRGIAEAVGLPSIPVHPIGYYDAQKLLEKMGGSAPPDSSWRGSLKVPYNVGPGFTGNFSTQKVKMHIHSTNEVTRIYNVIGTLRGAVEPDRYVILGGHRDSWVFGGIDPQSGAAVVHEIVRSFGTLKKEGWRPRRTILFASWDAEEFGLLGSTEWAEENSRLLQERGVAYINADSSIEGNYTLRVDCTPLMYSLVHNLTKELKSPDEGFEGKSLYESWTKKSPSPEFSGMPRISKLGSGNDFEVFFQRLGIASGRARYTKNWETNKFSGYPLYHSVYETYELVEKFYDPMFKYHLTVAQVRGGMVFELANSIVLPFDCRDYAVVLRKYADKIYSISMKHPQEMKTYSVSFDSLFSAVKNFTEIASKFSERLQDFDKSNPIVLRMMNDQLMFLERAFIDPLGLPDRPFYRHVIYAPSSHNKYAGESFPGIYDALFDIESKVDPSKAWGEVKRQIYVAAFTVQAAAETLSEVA
T3 sequence (chain, as listed by the source mutant limits assumed): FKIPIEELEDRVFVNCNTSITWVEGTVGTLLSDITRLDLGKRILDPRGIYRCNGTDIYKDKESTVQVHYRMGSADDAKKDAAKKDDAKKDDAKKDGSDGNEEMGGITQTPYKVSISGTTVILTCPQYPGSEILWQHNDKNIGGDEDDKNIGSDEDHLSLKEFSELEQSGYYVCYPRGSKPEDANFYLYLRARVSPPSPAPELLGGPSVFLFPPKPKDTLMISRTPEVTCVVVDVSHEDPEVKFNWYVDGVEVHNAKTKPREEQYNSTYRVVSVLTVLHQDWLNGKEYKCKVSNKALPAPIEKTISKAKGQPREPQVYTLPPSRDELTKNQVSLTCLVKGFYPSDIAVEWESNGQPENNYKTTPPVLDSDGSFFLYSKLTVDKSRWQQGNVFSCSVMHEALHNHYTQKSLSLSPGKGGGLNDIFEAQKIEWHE
T2 sequence (Q04609 44-750 limits assumed): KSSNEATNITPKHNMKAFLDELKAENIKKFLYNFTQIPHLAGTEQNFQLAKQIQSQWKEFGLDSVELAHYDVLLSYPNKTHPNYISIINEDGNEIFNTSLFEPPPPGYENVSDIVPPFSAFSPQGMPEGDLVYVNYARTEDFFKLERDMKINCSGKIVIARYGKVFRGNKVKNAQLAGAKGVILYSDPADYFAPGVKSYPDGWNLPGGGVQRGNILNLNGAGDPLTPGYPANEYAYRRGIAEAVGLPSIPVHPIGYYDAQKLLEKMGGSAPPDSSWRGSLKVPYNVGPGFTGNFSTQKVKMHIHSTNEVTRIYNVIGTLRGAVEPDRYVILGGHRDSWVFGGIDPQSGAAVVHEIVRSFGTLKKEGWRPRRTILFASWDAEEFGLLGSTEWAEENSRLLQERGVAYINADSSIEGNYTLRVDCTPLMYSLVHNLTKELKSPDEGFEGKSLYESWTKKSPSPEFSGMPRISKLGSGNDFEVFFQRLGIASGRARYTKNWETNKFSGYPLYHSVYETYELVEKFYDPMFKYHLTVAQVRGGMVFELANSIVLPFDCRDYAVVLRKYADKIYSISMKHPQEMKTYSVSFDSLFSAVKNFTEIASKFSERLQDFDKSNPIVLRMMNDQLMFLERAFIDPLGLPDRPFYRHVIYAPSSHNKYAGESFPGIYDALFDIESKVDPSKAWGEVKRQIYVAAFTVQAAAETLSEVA

B1: PS3B934 (bispecific antibody, human IgG1, kappa, lambda, L234A L235A)
heavy 1: EVQLVESGGGLVKPGGSLRLSCAASGFTFSRYNMNWVRQAPGKGLEWVSSISTSSNYIYYADSVKGRFTFSRDNAKNSLDLQMSGLRAEDTAIYYCTRGWGPFDYWGQGTLVTVSSASTKGPSVFPLAPSSKSTSGGTAALGCLVKDYFPEPVTVSWNSGALTSGVHTFPAVLQSSGLYSLSSVVTVPSSSLGTQTYICNVNHKPSNTKVDKKVEPKSCDKTHTCPPCPAPEAAGGPSVFLFPPKPKDTLMISRTPEVTCVVVSVSHEDPEVKFNWYVDGVEVHNAKTKPREEQYNSTYRVVSVLTVLHQDWLNGKEYKCKVSNKALPAPIEKTISKAKGQPREPQVYTLPPSREEMTKNQVSLTCLVKGFYPSDIAVEWESNGQPENNYKTTPPVLDSDGSFLLYSKLTVDKSRWQQGNVFSCSVMHEALHNHYTQKSLSLSP
light 1: DIQMTQSPSSLSASVGDRVTITCRARQSIGTAIHWYQQKPGKAPKLLIKYASESISGVPSRFSGSGSGTDFTLTISSLQPEDFATYYCQQSGSWPYTFGQGTKLEIKRTVAAPSVFIFPPSDEQLKSGTASVVCLLNNFYPREAKVQWKVDNALQSGNSQESVTEQDSKDSTYSLSSTLTLSKADYEKHKVYACEVTHQGLSSPVTKSFNRGEC
heavy 2: EVQLVESGGGLVQPGGSLRLSCAASGFTFSSYAMSWVRQAPGKGLEWVSAISGGIGSTYYADSVKGRFTISRDNSKNTLWLQMNSLRAEDTAVYYCAKDGVGATPYYFDYWGQGTLVTVSSASTKGPSVFPLAPSSKSTSGGTAALGCLVKDYFPEPVTVSWNSGALTSGVHTFPAVLQSSGLYSLSSVVTVPSSSLGTQTYICNVNHKPSNTKVDKKVEPKSCDKTHTCPPCPAPEAAGGPSVFLFPPKPKDTLMISRTPEVTCVVVSVSHEDPEVKFNWYVDGVEVHNAKTKPREEQYNSTYRVVSVLTVLHQDWLNGKEYKCKVSNKALPAPIEKTISKAKGQPREPQVYTLPPSREEMTKNQVSLTCLVKGFYPSDIAVEWESNGQPENNYKTTPPVLDSDGSFFLYSRLTVDKSRWQQGNVFSCSVMHEALHNHYTQKSLSLSPG
light 2: QSVLTQPPSVSAAPGQKVTISCSGSSSNIGINYVSWYQQLPGTAPKLLIYDNNKRPSGIPDRFSGSKSGTSATLGITGLQTGDEADYYCGTWDSSLSAVVFGGGTKLTVLGQPKAAPSVTLFPPSSEELQANKATLVCLISDFYPGAVTVAWKADSSPVKAGVETTTPSKQSNNKYAASSYLSLTPEQWKSHRSYSCQVTHEGSTVEKTVAPTECS
notes: FAB-A: CD3B2183 (CD3W245); FAB-B: PSMB896
EC50 [1]: 4.96 nM
EC50 [2]: 11 nM
Kd (recombinant human PSMA): ≤ 0.0873 nM

B2: PS3B935 (bispecific antibody, human IgG1, kappa, lambda, L234A L235A)
heavy 1: EVQLVESGGGLVKPGGSLRLSCAASGFTFSRYNMNWVRQAPGKGLEWVSSISTSSNYIYYADSVKGRFTFSRDNAKNSLDLQMSGLRAEDTAIYYCTRGWGPFDYWGQGTLVTVSSASTKGPSVFPLAPSSKSTSGGTAALGCLVKDYFPEPVTVSWNSGALTSGVHTFPAVLQSSGLYSLSSVVTVPSSSLGTQTYICNVNHKPSNTKVDKKVEPKSCDKTHTCPPCPAPEAAGGPSVFLFPPKPKDTLMISRTPEVTCVVVSVSHEDPEVKFNWYVDGVEVHNAKTKPREEQYNSTYRVVSVLTVLHQDWLNGKEYKCKVSNKALPAPIEKTISKAKGQPREPQVYTLPPSREEMTKNQVSLTCLVKGFYPSDIAVEWESNGQPENNYKTTPPVLDSDGSFLLYSKLTVDKSRWQQGNVFSCSVMHEALHNHYTQKSLSLSP
light 1: DIQMTQSPSSLSASVGDRVTITCRARQSIGTAIHWYQQKPGKAPKLLIKYASESISGVPSRFSGSGSGTDFTLTISSLQPEDFATYYCQQSGSWPYTFGQGTKLEIKRTVAAPSVFIFPPSDEQLKSGTASVVCLLNNFYPREAKVQWKVDNALQSGNSQESVTEQDSKDSTYSLSSTLTLSKADYEKHKVYACEVTHQGLSSPVTKSFNRGEC
heavy 2: EVQLVESGGGLVQPGGSLRLSCAASGFTFSSYAMSWVRQAPGKGLEWVSAISGGSGSTYYADSVKGRFTISRDNSKNTLYLQMNSLRAEDSAVYYCAKDGVGATPYYFDYWGQGTLVTVSSASTKGPSVFPLAPSSKSTSGGTAALGCLVKDYFPEPVTVSWNSGALTSGVHTFPAVLQSSGLYSLSSVVTVPSSSLGTQTYICNVNHKPSNTKVDKKVEPKSCDKTHTCPPCPAPEAAGGPSVFLFPPKPKDTLMISRTPEVTCVVVSVSHEDPEVKFNWYVDGVEVHNAKTKPREEQYNSTYRVVSVLTVLHQDWLNGKEYKCKVSNKALPAPIEKTISKAKGQPREPQVYTLPPSREEMTKNQVSLTCLVKGFYPSDIAVEWESNGQPENNYKTTPPVLDSDGSFFLYSRLTVDKSRWQQGNVFSCSVMHEALHNHYTQKSLSLSPG
light 2: QSVLTQPPSVSAAPGQKVTISCSGSSSNIGINYVSWYQQLPGTAPKLLIYDNNKRPSGIPDRFSGSKSGTSATLGITGLQTGDEADYYCGTWDSSLSAVVFGGGTKLTVLGQPKAAPSVTLFPPSSEELQANKATLVCLISDFYPGAVTVAWKADSSPVKAGVETTTPSKQSNNKYAASSYLSLTPEQWKSHRSYSCQVTHEGSTVEKTVAPTECS
notes: FAB-A: CD3B2183 (CD3W245); FAB-B: PSMB898
EC50 [1]: 39.5 nM
EC50 [2]: 8.22 nM
Kd (recombinant human PSMA): 0.454 nM

B3: CD3B1135 (scFv)
scFv: EIVLTQSPATLSLSPGERATLSCSASSSVSYMNWYQQKPGTSPRRLIYDSSKLASGIPARFSGSGSGRDYTLTISSLEPEDFAVYYCQQWSRNPPTFGGGTKVEIKGGSEGKSSGSGSESKSTGGSQVQLVQSGAEVKKPGSSVKVSCKASGYTFTRSTMHWVRQAPGQGLEWMGYINPSSAYTNYNQKFQGRVTLTADKSTSTAYMELSSLRSEDTAVYYCARPQVHYDYNGFPYWGQGTLVTVSS
EC50 [3]: 1.04 nM

B4: CD3B1132 (scFv)
scFv: EVQLVQSGAEVKKPGESLRISCKASGYTFTRSTMHWVRQMPGKGLEWMGYINPSSAYTNYNPSFQGHVTLSADKSISTAYLQWSSLKASDTAMYYCARPQVHYDYNGFPYWGQGTLVTVSSGGSEGKSSGSGSESKSTGGSEIVLTQSPATLSLSPGERATLSCSASSSVSYMNWYQQKPGTSPRRLIYDSSKLASGIPARFSGSGSGRDYTLTISSLEPEDFAVYYCQQWSRNPPTFGGGTKVEIK
EC50 [3]: ~1.1 nM

B5: CD3B1130 (scFv)
scFv: QVQLVQSGAEVKKPGSSVKVSCKASGYTFTRSTMHWVRQAPGQGLEWMGYINPSSAYTNYNQKFQGRVTLTADKSTSTAYMELSSLRSEDTAVYYCARPQVHYDYNGFPYWGQGTLVTVSSGGSEGKSSGSGSESKSTGGSEIVLTQSPATLSLSPGERATLSCSASSSVSYMNWYQQKPGTSPRRLIYDSSKLASGIPARFSGSGSGRDYTLTISSLEPEDFAVYYCQQWSRNPPTFGGGTKVEIK
notes: also called IGHV1-69*02-IGHJ1-01 / IGKV3-11*02-IGKJ4-01 grafted construct, HL
% Retained 55° C. [4]: 90%
% Retained 60° C. [4]: 11%
% Retained 65° C. [4]: 1%
EC50 [3]: 0.747 nM

B6: CD3B1129 (scFv)
scFv: QVQLVQSGAEVKKPGSSVKVSCKASGYTFTRSTMHWVRQAPGQGLEWMGYINPSSAYTNYNQKFQGRVTLTADKSTSTAYMELSSLRSEDTAVYYCARPQVHYDYNGFPYWGQGTLVTVSSGGSEGKSSGSGSESKSTGGSDIQLTQSPSSLSASVGDRVTITCSASSSVSYMNWYQQKPGTSPKRLIYDSSKLASGVPSRFSGSGSGTDYTLTISSLQPEDFATYYCQQWSRNPPTFGGGTKVEIK
EC50 [3]: 0.712 nM

B7: CD3B1133 (scFv)
scFv: DIQLTQSPSSLSASVGDRVTITCSASSSVSYMNWYQQKPGTSPKRLIYDSSKLASGVPSRFSGSGSGTDYTLTISSLQPEDFATYYCQQWSRNPPTFGGGTKVEIKGGSEGKSSGSGSESKSTGGSQVQLVQSGAEVKKPGSSVKVSCKASGYTFTRSTMHWVRQAPGQGLEWMGYINPSSAYTNYNQKFQGRVTLTADKSTSTAYMELSSLRSEDTAVYYCARPQVHYDYNGFPYWGQGTLVTVSS
EC50 [3]: 0.958 nM

B8: CD3B1131 (scFv)
scFv: EVQLVQSGAEVKKPGESLRISCKASGYTFTRSTMHWVRQMPGKGLEWMGYINPSSAYTNYNPSFQGHVTLSADKSISTAYLQWSSLKASDTAMYYCARPQVHYDYNGFPYWGQGTLVTVSSGGSEGKSSGSGSESKSTGGSDIQLTQSPSSLSASVGDRVTITCSASSSVSYMNWYQQKPGTSPKRLIYDSSKLASGVPSRFSGSGSGTDYTLTISSLQPEDFATYYCQQWSRNPPTFGGGTKVEIK
notes: also called CD381131
EC50 [3]: 1.14 nM

B9: CD3B1134 (scFv)
scFv: DIQLTQSPSSLSASVGDRVTITCSASSSVSYMNWYQQKPGTSPKRLIYDSSKLASGVPSRFSGSGSGTDYTLTISSLQPEDFATYYCQQWSRNPPTFGGGTKVEIKGGSEGKSSGSGSESKSTGGSEVQLVQSGAEVKKPGESLRISCKASGYTFTRSTMHWVRQMPGKGLEWMGYINPSSAYTNYNPSFQGHVTLSADKSISTAYLQWSSLKASDTAMYYCARPQVHYDYNGFPYWGQGTLVTVSS
EC50 [3]: ~0.0063 nM
